Measurements published in patent US20150344570A1 (published 2015).

T1: FcγRIIa R (FcγRIIa, allotype with Arg at position 131), extracellular domain with C-terminal His tag (human, UniProt P12318 34-217)
T1 construct: extracellular domain; also called FcγRIIa R type; 2aR
T1 sequence (looked up): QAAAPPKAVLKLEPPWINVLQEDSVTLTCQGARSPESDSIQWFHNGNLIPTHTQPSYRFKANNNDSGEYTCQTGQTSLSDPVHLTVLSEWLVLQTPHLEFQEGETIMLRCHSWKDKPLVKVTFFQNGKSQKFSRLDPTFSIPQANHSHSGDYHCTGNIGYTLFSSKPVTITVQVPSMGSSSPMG


Molecular target: T1, FcγRIIa R (FcγRIIa, allotype with Arg …)
Assay: SPR (Biacore), antibody captured on antigen peptide chip, FcγR as analyte; relative binding
Procedure: Analysis of interaction between objective antibody and the FcγR was carried out using Biacore T100 (GE Healthcare). HBS-EP+ (GE Healthcare) was used as the running buffer, and the measurement temperature was set to 25° C. Chips produced by immobilizing the antigen peptide by the amine coupling method to a Series S Sencor Chip CM5 (GE Healthcare), or alternatively, chips produced by allowing preliminarily biotinylated antigen peptides to interact with and immobilize onto a Series S Sensor Chip SA (certified) (GE Healthcare) were used. Antibodies of interest were captured onto an antigen peptide-immobilized chip, and allowed to interact to each FcγR diluted with running buffer. To regenerate and repeatedly use the chip, the antibodies captured on the chip were washed off by reacting 10 mM glycine-HCl, pH 1.5.

| Binder | Ho/Con_2aR |
| --- | --- |
| GpH7-B3 variant S337_16H/GpL16-k0 (antibody, human IgG1, kappa, also called Ho Ab) heavy: not shown light: DIVMTQSPLSLPVTPGEPASISCQASESLVHSNRNTYLHWYLQKPGQSPQLLIYKVSNRFSGVPDRFSGSGSGTDFTLKISRVEAEDVGVYYCSQNTHVPPTFGQGTKVEIERTVAAPSVFIFPPSDEQLKSGTASVVCLLNNFYPREAKVQWKVDNALQSGNSQESVTEQDSKDSTYSLSSTLTLSKADYEKHKVYACEVTHQGLSSPVTKSFNRGEC | 107 % of GpH7-B3/GpL16-k0 (=100) |
| GpH7-B3 variant S337_18N/GpL16-k0 (antibody, human IgG1, kappa, also called Ho Ab) heavy: not shown light: DIVMTQSPLSLPVTPGEPASISCQASESLVHSNRNTYLHWYLQKPGQSPQLLIYKVSNRFSGVPDRFSGSGSGTDFTLKISRVEAEDVGVYYCSQNTHVPPTFGQGTKVEIERTVAAPSVFIFPPSDEQLKSGTASVVCLLNNFYPREAKVQWKVDNALQSGNSQESVTEQDSKDSTYSLSSTLTLSKADYEKHKVYACEVTHQGLSSPVTKSFNRGEC | 103 % of GpH7-B3/GpL16-k0 (=100) |
| GpH7-B3 variant T335_07I/GpL16-k0 (antibody, human IgG1, kappa, also called Ho Ab) heavy: not shown light: DIVMTQSPLSLPVTPGEPASISCQASESLVHSNRNTYLHWYLQKPGQSPQLLIYKVSNRFSGVPDRFSGSGSGTDFTLKISRVEAEDVGVYYCSQNTHVPPTFGQGTKVEIERTVAAPSVFIFPPSDEQLKSGTASVVCLLNNFYPREAKVQWKVDNALQSGNSQESVTEQDSKDSTYSLSSTLTLSKADYEKHKVYACEVTHQGLSSPVTKSFNRGEC | 107 % of GpH7-B3/GpL16-k0 (=100) |
| GpH7-B3 variant T335_12R/GpL16-k0 (antibody, human IgG1, kappa, also called Ho Ab) heavy: not shown light: DIVMTQSPLSLPVTPGEPASISCQASESLVHSNRNTYLHWYLQKPGQSPQLLIYKVSNRFSGVPDRFSGSGSGTDFTLKISRVEAEDVGVYYCSQNTHVPPTFGQGTKVEIERTVAAPSVFIFPPSDEQLKSGTASVVCLLNNFYPREAKVQWKVDNALQSGNSQESVTEQDSKDSTYSLSSTLTLSKADYEKHKVYACEVTHQGLSSPVTKSFNRGEC | 94 % of GpH7-B3/GpL16-k0 (=100) |

The remaining lines, values ahead:

| Ho/Con_2aR | Binder |
| --- | --- |
| 107 % of GpH7-B3/GpL16-k0 (=100) | GpH7-B3 variant T335_15Y/GpL16-k0 (antibody, human IgG1, kappa, also called Ho Ab) heavy: not shown light: DIVMTQSPLSLPVTPGEPASISCQASESLVHSNRNTYLHWYLQKPGQSPQLLIYKVSNRFSGVPDRFSGSGSGTDFTLKISRVEAEDVGVYYCSQNTHVPPTFGQGTKVEIERTVAAPSVFIFPPSDEQLKSGTASVVCLLNNFYPREAKVQWKVDNALQSGNSQESVTEQDSKDSTYSLSSTLTLSKADYEKHKVYACEVTHQGLSSPVTKSFNRGEC |
| 100 % of GpH7-B3/GpL16-k0 (=100) | GpH7-B3 variant T335_18N/GpL16-k0 (antibody, human IgG1, kappa, also called Ho Ab) heavy: not shown light: DIVMTQSPLSLPVTPGEPASISCQASESLVHSNRNTYLHWYLQKPGQSPQLLIYKVSNRFSGVPDRFSGSGSGTDFTLKISRVEAEDVGVYYCSQNTHVPPTFGQGTKVEIERTVAAPSVFIFPPSDEQLKSGTASVVCLLNNFYPREAKVQWKVDNALQSGNSQESVTEQDSKDSTYSLSSTLTLSKADYEKHKVYACEVTHQGLSSPVTKSFNRGEC |
| 102 % of GpH7-B3/GpL16-k0 (=100) | GpH7-B3 variant T335_13S/GpL16-k0 (antibody, human IgG1, kappa, also called Ho Ab) heavy: not shown light: DIVMTQSPLSLPVTPGEPASISCQASESLVHSNRNTYLHWYLQKPGQSPQLLIYKVSNRFSGVPDRFSGSGSGTDFTLKISRVEAEDVGVYYCSQNTHVPPTFGQGTKVEIERTVAAPSVFIFPPSDEQLKSGTASVVCLLNNFYPREAKVQWKVDNALQSGNSQESVTEQDSKDSTYSLSSTLTLSKADYEKHKVYACEVTHQGLSSPVTKSFNRGEC |
| 106 % of GpH7-B3/GpL16-k0 (=100) | GpH7-B3 variant Y296_04F/GpL16-k0 (antibody, human IgG1, kappa, also called Ho Ab) heavy: not shown light: DIVMTQSPLSLPVTPGEPASISCQASESLVHSNRNTYLHWYLQKPGQSPQLLIYKVSNRFSGVPDRFSGSGSGTDFTLKISRVEAEDVGVYYCSQNTHVPPTFGQGTKVEIERTVAAPSVFIFPPSDEQLKSGTASVVCLLNNFYPREAKVQWKVDNALQSGNSQESVTEQDSKDSTYSLSSTLTLSKADYEKHKVYACEVTHQGLSSPVTKSFNRGEC |
| 102 % of GpH7-B3/GpL16-k0 (=100) | GpH7-B3 variant T335_16H/GpL16-k0 (antibody, human IgG1, kappa, also called Ho Ab) heavy: not shown light: DIVMTQSPLSLPVTPGEPASISCQASESLVHSNRNTYLHWYLQKPGQSPQLLIYKVSNRFSGVPDRFSGSGSGTDFTLKISRVEAEDVGVYYCSQNTHVPPTFGQGTKVEIERTVAAPSVFIFPPSDEQLKSGTASVVCLLNNFYPREAKVQWKVDNALQSGNSQESVTEQDSKDSTYSLSSTLTLSKADYEKHKVYACEVTHQGLSSPVTKSFNRGEC |
| 146 % of GpH7-B3/GpL16-k0 (=100) | GpH7-B3 variant V266_06M/GpL16-k0 (antibody, human IgG1, kappa, also called Ho Ab) heavy: not shown light: DIVMTQSPLSLPVTPGEPASISCQASESLVHSNRNTYLHWYLQKPGQSPQLLIYKVSNRFSGVPDRFSGSGSGTDFTLKISRVEAEDVGVYYCSQNTHVPPTFGQGTKVEIERTVAAPSVFIFPPSDEQLKSGTASVVCLLNNFYPREAKVQWKVDNALQSGNSQESVTEQDSKDSTYSLSSTLTLSKADYEKHKVYACEVTHQGLSSPVTKSFNRGEC |
